Columns and labels:
[1] = biological target: T1, MsmTOP1-839t (D1-D7) (Mycobacterium smegmatis mc2 155, UniProt A0R5D9 1-839); assay: X-ray crystallography (3.1 A); no metal ion at active site; ssDNA at both N-terminal and D6-D7 domains; Anisotropy: 50 mM Tris-HCl pH 7.5, 100 mM NaCl, 0.1 mM EDTA, room temperature; crystal: 0.1 M Tris-HCl pH 8.5, 1.5 M lithium sulfate, 16 C, protein:ssDNA 1:2; conditions: protein: recombinant; tags: His6-Mocr removed by TEV (N-terminal SNA left); single strand; in crystal two copies pair through 5' regions (12 bp, six non-Watson-Crick pairs/mismatches)
T1 sequence: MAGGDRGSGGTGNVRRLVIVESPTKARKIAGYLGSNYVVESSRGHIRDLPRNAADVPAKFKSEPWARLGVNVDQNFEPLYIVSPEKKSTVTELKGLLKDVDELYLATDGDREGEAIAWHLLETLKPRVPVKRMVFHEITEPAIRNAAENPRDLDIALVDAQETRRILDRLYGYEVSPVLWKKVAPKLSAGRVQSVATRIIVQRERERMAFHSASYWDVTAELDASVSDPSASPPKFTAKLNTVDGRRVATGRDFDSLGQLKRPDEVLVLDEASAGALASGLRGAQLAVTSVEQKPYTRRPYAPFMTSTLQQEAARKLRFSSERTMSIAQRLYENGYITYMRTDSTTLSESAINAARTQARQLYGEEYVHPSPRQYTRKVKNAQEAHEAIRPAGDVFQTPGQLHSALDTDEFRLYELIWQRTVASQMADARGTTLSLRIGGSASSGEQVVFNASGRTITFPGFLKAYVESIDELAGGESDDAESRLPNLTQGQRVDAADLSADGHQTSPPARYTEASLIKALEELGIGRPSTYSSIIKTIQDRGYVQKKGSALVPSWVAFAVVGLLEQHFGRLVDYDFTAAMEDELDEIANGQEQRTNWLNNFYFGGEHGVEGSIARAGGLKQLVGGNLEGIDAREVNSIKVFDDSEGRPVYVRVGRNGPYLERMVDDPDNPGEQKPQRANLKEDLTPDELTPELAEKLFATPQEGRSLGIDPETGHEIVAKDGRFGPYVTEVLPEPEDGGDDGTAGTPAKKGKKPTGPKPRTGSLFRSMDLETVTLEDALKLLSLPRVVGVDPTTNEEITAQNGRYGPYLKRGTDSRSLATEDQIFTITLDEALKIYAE

[2] = biological target: T2, MsmTOP1 full length (topoisomerase I) (Mycobacterium smegmatis mc2 155, UniProt A0R5D9 1-936); assay: fluorescence anisotropy; Kd could not be determined; no Mg2+, 0.1 mM EDTA; Anisotropy: 50 mM Tris-HCl pH 7.5, 100 mM NaCl, 0.1 mM EDTA, room temperature; crystal: 0.1 M Tris-HCl pH 8.5, 1.5 M lithium sulfate, 16 C, protein:ssDNA 1:2; conditions: protein: recombinant; tags: His6-Mocr removed by TEV (N-terminal SNA left); label: 3' 6-carboxyfluorescein; single strand
T2 sequence: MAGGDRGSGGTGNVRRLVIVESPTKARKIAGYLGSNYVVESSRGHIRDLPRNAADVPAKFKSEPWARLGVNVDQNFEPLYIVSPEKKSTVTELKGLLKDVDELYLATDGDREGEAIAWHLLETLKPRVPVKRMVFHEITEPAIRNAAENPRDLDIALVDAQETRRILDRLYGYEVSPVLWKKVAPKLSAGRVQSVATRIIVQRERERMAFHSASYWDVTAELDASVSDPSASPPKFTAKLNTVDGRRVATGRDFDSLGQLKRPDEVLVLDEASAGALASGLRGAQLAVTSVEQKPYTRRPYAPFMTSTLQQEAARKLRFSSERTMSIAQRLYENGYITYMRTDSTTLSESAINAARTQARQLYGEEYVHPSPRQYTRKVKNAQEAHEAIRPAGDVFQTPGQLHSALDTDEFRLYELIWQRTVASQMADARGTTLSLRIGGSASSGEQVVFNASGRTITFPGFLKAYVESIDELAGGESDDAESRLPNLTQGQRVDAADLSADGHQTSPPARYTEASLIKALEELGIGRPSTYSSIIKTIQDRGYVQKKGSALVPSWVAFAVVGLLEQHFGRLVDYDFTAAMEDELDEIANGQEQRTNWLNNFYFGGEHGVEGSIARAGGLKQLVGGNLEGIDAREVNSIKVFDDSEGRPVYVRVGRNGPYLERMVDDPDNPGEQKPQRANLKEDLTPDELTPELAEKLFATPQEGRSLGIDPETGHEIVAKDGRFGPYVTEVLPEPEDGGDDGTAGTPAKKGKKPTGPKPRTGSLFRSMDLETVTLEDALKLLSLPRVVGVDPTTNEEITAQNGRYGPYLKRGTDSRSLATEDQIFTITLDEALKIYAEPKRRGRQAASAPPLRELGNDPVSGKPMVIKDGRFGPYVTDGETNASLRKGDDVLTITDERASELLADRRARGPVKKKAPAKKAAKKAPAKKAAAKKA

[3] = biological target: T3, MsmTOP1-701t (D1-D5) (Mycobacterium smegmatis mc2 155, UniProt A0R5D9 1-701); assay: fluorescence anisotropy; no Mg2+, 0.1 mM EDTA; Anisotropy: 50 mM Tris-HCl pH 7.5, 100 mM NaCl, 0.1 mM EDTA, room temperature; crystal: 0.1 M Tris-HCl pH 8.5, 1.5 M lithium sulfate, 16 C, protein:ssDNA 1:2; conditions: protein: recombinant; tags: His6-Mocr removed by TEV (N-terminal SNA left); label: 3' 6-carboxyfluorescein; single strand
T3 sequence: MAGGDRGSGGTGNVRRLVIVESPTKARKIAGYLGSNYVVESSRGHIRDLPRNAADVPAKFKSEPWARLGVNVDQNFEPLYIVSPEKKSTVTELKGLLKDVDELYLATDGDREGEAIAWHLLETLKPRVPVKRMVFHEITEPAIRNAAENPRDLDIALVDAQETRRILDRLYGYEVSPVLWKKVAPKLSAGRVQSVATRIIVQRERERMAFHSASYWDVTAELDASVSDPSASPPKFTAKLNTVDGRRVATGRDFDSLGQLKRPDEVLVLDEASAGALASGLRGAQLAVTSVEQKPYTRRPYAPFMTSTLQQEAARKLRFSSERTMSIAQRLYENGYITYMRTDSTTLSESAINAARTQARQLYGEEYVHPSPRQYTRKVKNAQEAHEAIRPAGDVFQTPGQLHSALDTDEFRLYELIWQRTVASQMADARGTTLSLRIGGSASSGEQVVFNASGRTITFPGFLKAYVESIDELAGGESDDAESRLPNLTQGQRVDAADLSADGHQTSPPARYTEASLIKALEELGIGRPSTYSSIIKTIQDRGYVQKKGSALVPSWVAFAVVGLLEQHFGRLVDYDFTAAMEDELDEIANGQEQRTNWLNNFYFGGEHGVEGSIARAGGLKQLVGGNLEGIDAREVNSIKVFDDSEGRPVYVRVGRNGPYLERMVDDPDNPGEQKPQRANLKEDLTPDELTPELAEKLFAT

[4] = biological target: T2, MsmTOP1 full length (topoisomerase I); assay: as above; conditions: protein: recombinant; tags: His6-Mocr removed by TEV (N-terminal SNA left); label: 3' 6-carboxyfluorescein; single strand

B1: MTS2-25 (ssDNA)
DNA: CAGTGAGCGAGCTTCCGCTTGACTT
- binding result [1]: binds

B2: MTS3-14 (ssDNA)
DNA: CTTCCGCTTGACAT
- binding result [2]: binds

B3: STS32 (ssDNA)
DNA: CAGTGAGCGAGCTTCCGCTTGACATCCCAATA
- Kd [3]: 14.9 nM
- Kd [4]: 0.3 nM

— publication PMC7192597, “Mechanistic insights from structure of Mycobacterium smegmatis topoisomerase I with ssDNA bound to both N- and C-terminal domains”
